IntAct's records for PubMed 31548606

B1: Isoform 5 of Intermediate filament family orphan 1 (Homo sapiens), Q0D2I5-5 (parent)
chain: MNPLFGPNLFLLQQEQQGLAGPLGDSLGGDHFAGGGDLPPAPLSPAGPAAYSPPGPGPAPPAAMALRNDLGSNINVLKTLNLRFRCFLAKVHELERRNRLLEKQLQQALEEGKQGRRGLGRRDQAVQTGFVSPIRPLGLQLGARPAAVCSPSARVLGSPARSPAGPLAPSAASLSSSSTSTSTTYSSSARFMPGTIWSFSHARRLGPGLEPTLVQGPGLSWVHPDGVGVQIDTITPEIRALYNVLAKVKRERDEYKRRWEEEYTVRIQLQDRVNELQEEAQEADACQEELALKVEQLKAELVVFKGLMSNNLSELDTKIQEKAMKVDMDICRRIDITAKLCDVAQQRNCEDMIQMFQKKLVPSMGGRKRERKAAVEEDTSLSESEGPRQPDGDEEESTALSINEEMQRMLNQLREYDFEDDCDSLTWEETEETLLLWEDFSGYAMAAAEAQGEQQEDSLEKVIKDTESLFKTREKEYQETIDQIELELATAKNDMNRHLHEYMEMCSMKRGLDVQMETCRRLITQSGDRKSPAFTAVPLSDPPPPPSEAEDSDRDVSSDSSMR
B2: Prelamin-A/C (Homo sapiens), P02545-1 (parent)
chain: METPSQRRATRSGAQASSTPLSPTRITRLQEKEDLQELNDRLAVYIDRVRSLETENAGLRLRITESEEVVSREVSGIKAAYEAELGDARKTLDSVAKERARLQLELSKVREEFKELKARNTKKEGDLIAAQARLKDLEALLNSKEAALSTALSEKRTLEGELHDLRGQVAKLEAALGEAKKQLQDEMLRRVDAENRLQTMKEELDFQKNIYSEELRETKRRHETRLVEIDNGKQREFESRLADALQELRAQHEDQVEQYKKELEKTYSAKLDNARQSAERNSNLVGAAHEELQQSRIRIDSLSAQLSQLQKQLAAKEAKLRDLEDSLARERDTSRRLLAEKEREMAEMRARMQQQLDEYQELLDIKLALDMEIHAYRKLLEGEEERLRLSPSPTSQRSRGRASSHSSQTQGGGSVTKKRKLESTESRSSFSQHARTSGRVAVEEVDEEGKFVRLRNKSNEDQSMGNWQIKRQNGDDPLLTYRFPPKFTLKAGQVVTIWAAGAGATHSPPTDLVWKAQNTWGCGNSLRTALINSTGEEVAMRKLVRSVTVVEDDEDEDGDDLLHHHHGSHCSSSGDPAEYNLRSRTVLCGTCGQPADKASASGSGAQVGGPISSGSSASSVTVTRSYRSVGGSGGGSFGDNLVTRSYLLGNSSPRTQSPQNCSIM

Variants of: B1
Conditions: with xrcc4_human XRCC4, Q13426
Chain of xrcc4_human XRCC4, Q13426 (Q13426 whole entry): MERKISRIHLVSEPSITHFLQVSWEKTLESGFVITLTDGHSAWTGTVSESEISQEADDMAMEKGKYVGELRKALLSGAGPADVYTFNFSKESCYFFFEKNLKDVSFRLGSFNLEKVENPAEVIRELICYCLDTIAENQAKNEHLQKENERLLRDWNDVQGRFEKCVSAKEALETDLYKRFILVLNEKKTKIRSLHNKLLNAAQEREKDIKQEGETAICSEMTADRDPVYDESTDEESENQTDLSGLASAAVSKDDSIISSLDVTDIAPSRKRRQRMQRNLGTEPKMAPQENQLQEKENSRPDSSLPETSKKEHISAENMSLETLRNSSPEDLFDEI

Row | Variant | effect of a mutation on the interaction
1 | I484R;A491R | disrupting interaction strength
2 | D494A;D513A;R520A | disrupting interaction strength
3 | D494A;R520A | disrupting interaction strength
4 | M516R;C519R | disrupting interaction strength
5 | C519R | disrupting interaction strength

Variants of: B1
Conditions: with lmna_human LMNA

Row | Variant | effect of a mutation on the interaction
6 | A65P | with no effect
7 | A65V | with no effect
8 | N73D | disrupting interaction strength
9 | N73K | decreasing interaction strength
10 | R85H | disrupting interaction strength
11 | A89T | with no effect
12 | A89V | with no effect

Variants of: B1
Conditions: with lmna_human LMNA
Remark: another data set of the same source

Row | Variant | effect of a mutation on the interaction
13 | N73D;R85H | disrupting interaction strength

Variants of: B2
Conditions: with iffo1_human IFFO1, Q0D2I5

Row | Variant | effect of a mutation on the interaction
14 | E358K | disrupting interaction strength
15 | R386M | disrupting interaction strength
